According to patent US20130280279A1 (Hoffmann-La Roche, published 2013):

T1: digoxigenated protein Dig-BP4
T1 chain: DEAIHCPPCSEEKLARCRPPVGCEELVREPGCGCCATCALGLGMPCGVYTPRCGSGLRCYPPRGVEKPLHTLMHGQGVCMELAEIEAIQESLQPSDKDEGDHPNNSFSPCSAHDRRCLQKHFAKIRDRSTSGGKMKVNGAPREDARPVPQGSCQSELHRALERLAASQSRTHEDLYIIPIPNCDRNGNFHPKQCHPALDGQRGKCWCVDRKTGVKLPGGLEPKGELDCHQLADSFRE


How the values were obtained:
[1] = biological target: T1, digoxigenated protein Dig-BP4; test: SPR (Biacore), antibody captured by anti-mouse IgG, DIG-BP4 injected
Description: (§1) Surfaces were blocked with an injection of 1 M ethanolamine/HCl pH 8.5. […] To evaluate the functionality of the recombinant <Dig> derivatives, binding of the recombinant hu<Dig> modules, incl.
(§2) Anti-mouse IgG antibody was immobilized on the surface of a CM5 biosensor chip in the same fashion as described above. […] The samples to be analyzed were diluted in HBS-P (10 mM HEPES, pH 7.4, 150 mM NaCl, 0.005% Surfactant P20) and injected at a flow rate of 5 μl/min. The contact time (association phase) was 3 min for the antibodies at a concentration between 1 and 5 nM. […] The contact time (association phase) was 3 min, the dissociation time (washing with running buffer) 5 min for each molecule at a flow rate of 30 μl/min. All interactions were performed at 25° C. (standard temperature). […] Signals were detected at a rate of one signal per second.

[2] = biological target: T1, digoxigenated protein Dig-BP4; test: SPR (Biacore), antibody captured by anti-human IgG, DIG-BP4 injected
Description: as §1, §2

Binder | Kd [1] [nM] | Kd [2] [nM]
murine <Dig> IgG1 kappa from mouse hybridoma clone 19-11 (antibody, V domains shown, also called murine DIG-IgG 19-11; mu<Dig> 19-11) VH: EVQLVESGGGLVKPGGSLKLSCAVSGFTFSDYAMSWIRQTPENRLEWVASINIGATYAYYPDSVKGRFTISRDNAKNTLFLQMSSLGSEDTAMYYCARPGSPYEYDKAYYSMAYWGPGTSVTVSS VL: DVQMTQSTSSLSASLGDRVTISCRASQDIKNYLNWYQQKPGGTVKLLIYYSSTLLSGVPSRFSGRGSGTDFSLTITNLEREDIATYFCQQSITLPPTFGGGTKLEIK | 0.033 | 
humanized <Dig> IgG (antibody, V domains shown, also called hu<Dig> IgG; DIGHu2) VH: QVQLVESGGGLVKPGGSLRLSCAASGFTFSDYAMSWIRQAPGKGLEWVSSINIGATYIYYADSVKGRFTISRDNAKNSLYLQMNSLRAEDTAVYYCARPGSPYEYDKAYYSMAYWGQGTTVTVSS VL: DIQMTQSPSSLSASVGDRVTITCRASQDIKNYLNWYQQKPGKAPKLLIYYSSTLLSGVPSRFSGSGSGTDFTLTISSLQPEDFATYYCQQSITLPPTFGGGTKVEIKR |  | < 0.076
